Reference: patent publication US20210189007A1 (BOARD OF REGENTS OF THE UNIVERSITY OF OKLAHOMA, published 2021)

Molecular target: T1, DCLK1 isoform 4 purified protein (human, UniProt O15075 314-740)
T1 construct: Purified protein used in Western blot and ELISA; also called Doublecortin-like kinase 1 isoform 4; DCLK1 purified protein
T1 sequence: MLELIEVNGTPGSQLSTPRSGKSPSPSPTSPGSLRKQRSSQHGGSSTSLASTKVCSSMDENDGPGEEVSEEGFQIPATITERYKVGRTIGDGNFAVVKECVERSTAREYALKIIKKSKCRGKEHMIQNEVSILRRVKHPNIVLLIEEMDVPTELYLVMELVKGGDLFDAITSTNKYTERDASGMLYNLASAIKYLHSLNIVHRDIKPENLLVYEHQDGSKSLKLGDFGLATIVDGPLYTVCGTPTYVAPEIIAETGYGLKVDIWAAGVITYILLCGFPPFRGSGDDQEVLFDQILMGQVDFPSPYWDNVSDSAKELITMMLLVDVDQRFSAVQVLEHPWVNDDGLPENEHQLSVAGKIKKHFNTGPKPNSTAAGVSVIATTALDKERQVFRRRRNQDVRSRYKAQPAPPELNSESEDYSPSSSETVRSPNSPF
Experiment: Western blot on purified protein

B1: CBT-15A monoclonal antibody (antibody, V domains shown)
VH: DVKLVESGGGLVKLGGSLKLSCAASGFTFSSYYMSWVRQTPEKRLELVAAINSNGGSTYYPDTVKGRFTISRDNAKNTLYLQMSSLKSEDTALYYCARHGGNYWYFDVWGAGTTVTVSS
VL: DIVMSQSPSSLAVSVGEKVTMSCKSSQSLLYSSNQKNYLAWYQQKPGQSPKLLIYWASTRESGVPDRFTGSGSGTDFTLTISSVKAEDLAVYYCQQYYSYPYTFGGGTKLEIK
notes: Mouse hybridoma antibody raised against KLH-linked immunogen no; also called CBT-15A mAB; CBT-15 mAB (A)
Does B1 bind?
Result: binds
